Test results from patent US20200040085A1 (Chugai, published 2020).

T1: HLA-DQ8 (HLA-DQA1*0301, HLA-DQB1*0302) on Ba/F3 cells (human, UniProt P01909 24-216; P01920 33-230, limits assumed)
T1 construct: whole, on cells; Expressed from cDNA in mouse Ba/F3 cells; also called Ba/F3-HLA-DQ8
T1 MHC II alpha: not shown
T1 MHC II beta: not shown

T2: recombinant HLA-DQ8/gliadin peptide (human)
T2 chain 1: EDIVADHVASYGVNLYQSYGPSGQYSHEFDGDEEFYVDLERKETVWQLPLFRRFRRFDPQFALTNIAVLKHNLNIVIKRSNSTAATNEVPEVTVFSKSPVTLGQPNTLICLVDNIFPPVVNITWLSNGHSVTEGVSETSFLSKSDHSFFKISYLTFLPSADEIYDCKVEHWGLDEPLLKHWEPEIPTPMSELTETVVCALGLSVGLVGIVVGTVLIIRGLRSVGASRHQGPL
T2 chain 2: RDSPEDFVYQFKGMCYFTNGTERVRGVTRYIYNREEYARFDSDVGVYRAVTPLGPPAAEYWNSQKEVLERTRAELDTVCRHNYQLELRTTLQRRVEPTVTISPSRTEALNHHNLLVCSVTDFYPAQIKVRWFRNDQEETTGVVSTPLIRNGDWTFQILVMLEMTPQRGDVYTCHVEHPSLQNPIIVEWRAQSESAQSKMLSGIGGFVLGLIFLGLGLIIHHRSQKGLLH

T3: cynomolgus monkey MHC-DQ allele #1 (MHC DQA1*M2-1, MHC DQB1*M2-1) on Ba/F3 cells (cynomolgus monkey)
T3 construct: also called Ba/F3-cynoDQ C1; cynoDQ C1
T3 MHC II alpha: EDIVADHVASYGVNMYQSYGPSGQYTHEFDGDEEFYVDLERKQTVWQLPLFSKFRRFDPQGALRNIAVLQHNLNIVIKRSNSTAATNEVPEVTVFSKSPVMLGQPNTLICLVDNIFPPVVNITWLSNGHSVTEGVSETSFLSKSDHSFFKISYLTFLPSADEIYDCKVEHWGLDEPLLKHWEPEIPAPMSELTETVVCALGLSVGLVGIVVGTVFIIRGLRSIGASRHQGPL
T3 MHC II beta: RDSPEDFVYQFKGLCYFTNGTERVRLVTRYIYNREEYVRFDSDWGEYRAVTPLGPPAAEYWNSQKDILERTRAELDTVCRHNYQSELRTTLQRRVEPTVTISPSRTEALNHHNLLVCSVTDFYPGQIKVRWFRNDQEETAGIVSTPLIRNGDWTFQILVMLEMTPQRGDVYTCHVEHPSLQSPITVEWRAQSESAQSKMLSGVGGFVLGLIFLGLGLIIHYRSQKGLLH

B1: DQN0092 (antibody, human IgG1, kappa, V domains shown)
VH: QSVEESGGRLVTPGTPLTLTCTVSGFSLSSYYISWVRQAPGKGLEWIGIIYTDGVTDYPNWAKGRFTISKTSTTVDLKITSPTTEDTATYFCARDAASVYGCGYFDLWGPGTLVTVSS
VL: TFKLTQTPASVEAAVGGTVTIKCQASESNGNALAWYQQKPGQPPKLLIYRAFTLASGVPSRLKGSGSGTQFALTISDLECADAATYYCQTYYGSNTDFNAFGGGTKVEIKR
notes: Rabbit variable regions with F1332m and hkOMC constant regions; also called DQN0092hh
B2: DQN0089 (antibody, human IgG1, kappa, V domains shown)
VH: QEQVVEYGGDLVQPEGSLTLTCKASGLDFSSTYYMCWVRQAPGKGLEWIGCIYGGSSDSTYYASWAKGRFTISKTSPTTVTLQMTSLTAADTATHFCATYDYGAVGYDLWGPGTLVTVSS
VL: EVVVTQTPASVEVAVGGTVTIKCQASQNISPYLSWYQQKPGQPPKLLIYKASTLASGVSSRFKGSGSGTQFTLTISDLECADAATYYCQNNYGVSINYGHTFGGGTKVEIKR
B3: DQN0157 (antibody, human IgG1, kappa, V domains shown)
VH: QSLEESGGDLVKPGASLTLTCTASGFSFSSSYYMCWVRQAPGKGLEWIACIYTGSSGSTYYPSWAKGRFTISKTSSTTVTLQMTSLTAADTATYFCARVRAGSGYYYFNLWGPGTLVTVSS
VL: DIVMTQTPSSVSAAVGGTVTIKCQASQTIYSGLAWYQQKPGQPPKLLIYDASDLASGVPSRFSGSGSGTEFTLAISGVQCDDAATYYCHGDYYGGSGTFFWTFGGGTKVEIKR
notes: Rabbit variable regions with F1332m and hkOMC constant regions; also called DQN0157cc
B4: DQN0139 (antibody, human IgG1, kappa, V domains shown)
VH: QSLEESGGRLVTPGTALTLTCTVSGFSLSSYAMGWVRQAPGKGLEYIGWTSPGDSAYYASWTKGRFTISRTSTTVELKITSPTTEDTATYFCARDAAYIGHWAFNLWGPGTLVTVSS
VL: DVVMTQTPASVSAPVGGTVTINCQASESIYSNLAWYQQKPGQPPKLLIYGASTLESGVPSRVKGSGYGTQFTLTISDLECADAATYYCQQYYGSSSTAFTFGGGTKVEIKR
notes: also called DQN0139bb
B5: DQN0177 (antibody, human IgG1, kappa, V domains shown)
VH: QSVEESGGRLVTPGTPLTLTCTVSGFSLSSYAMSWVRQAPGKGLEWIGVISYSGRTYDASWAKGRFTISKTSTTVDLKITSPTTEDTATYFCARVGDSYGYAYATVIFTYHFNLWGPGTLVTVSS
VL: DPVLTQTPSSASEPVGGTVTIKCQASESISSSLAWYQQKPGQRPKLLIYDASKLASGVPSRFKGSGSGTEFTLTISGVQCDDAATYYCQHGLSSGSTNRCAFGGGTKVEIKR
notes: also called DQN0177aa
B6: DQN0016 (antibody, human IgG1, kappa, V domains shown)
VH: QSLEESGGDLVKPGASLTLTCTASGFSFSSRYWMCWVRQAPGKGLEWIACIDAGSSGITYYASWANGRFTISKTSSTTVTLQMTSLTAADTATYFCARDAWSTTDGWNTFNLWGPGTLVTVSS
VL: DVVMTQTPASVSAAVGGTVTIKCQASQSIGSNLNWYQQKPGQSPKLLIYSASTLASGVPSRFKGSGSGTEYTLTISNLECADAATYYCQSYYYTGSSAVNNFGGGTKVEIKR
notes: Rabbit B-cell derived variable regions recombined with F1332m heavy and hkOMC light constant regions; expressed in FreeStyle 293-F cells; also called DQN0016cc
B7: DQN0100 (antibody, human IgG1, kappa, V domains shown)
VH: QQQLEESGGGLVKPGASLTLTCKGSGFSFTSGYWICWVRQAPGKGLEWIGCIYTGSSGSTYYASWAKGRFTISRSSTTVTLQMTSLTVADTATYFCAGDPSGASSGWDNLWGPGTLVTVSS
VL: AFELTQTPSSVEAAVGGTVTIKCQASQTIVSWLAWYQQKPGQRPKLLILYASNLASGVSSRFRGSGSGTDYTLTISDLECDDAATYYCQSYYFSTSSPDMYAFGGGTKVEIKR
notes: Rabbit variable regions with F1332m and hkOMC constant regions; also called DQN0100aa

Legend:
[1] = target: T1, HLA-DQ8 (HLA-DQA1*0301, HLA-DQB1*0302) …; test: FACS on Ba/F3-HLA-DQ8 cells
Description: (§1) Binding of antiHLA-DQ2.5/8 antibodies to HLA-DQ2.5-expressing Ba/F3 cells (Ba/F3-HLA-DQ2.5), Ba/F3-HLA-DQ8, Ba/F3-HLA-DR, Ba/F3-HLA-DP, Ba/F3-cynoDQ C1, Ba/F3-cynoDQ C2, and Ba/F3-cynoDQ C3 was tested.
(§2) Anti-HLA-DQ2.5/8 antibodies were incubated with each cell line for 30 minutes at room temperature and washed with FACS buffer (2% FBS, 2 mM EDTA in PBS). Goat F(ab′)2 anti-Human IgG, Mouse ads-PE (Southern Biotech, Cat. 2043-09) was then added and incubated for 20 minutes at 4 degrees C. and washed with FACS buffer. Data acquisition was performed on an FACS Verse (Becton Dickinson), followed by analysis using the FlowJo software (Tree Star) and the GraphPad Prism software (GraphPad).

[2] = target: T4, HLA-DQ2.5 (HLA-DQA1*0501, HLA-DQB1*0201) on Ba/F3 cells (human, UniProt P01909 24-216, limits assumed); test: FACS on Ba/F3-HLA-DQ2.5 cells
T4 construct: whole, on cells; Expressed from cDNA in mouse Ba/F3 cells; also called Ba/F3-HLA-DQ2.5
Description: as §1, §2

[3] = target: T2, recombinant HLA-DQ8/gliadin peptide; test: SPR Biacore T200, 37 C, pH 7.4; antibody captured by anti-human Fc, pMHC injected; 1:1 model
Description: The affinity of the anti-HLA-DQ2.5/8 antibodies for binding to human HLA-DQ2.5/gliadin peptide and HLA-DQ8/gliadin peptide at pH 7.4 was determined at 37 degrees C. using the Biacore T200 instrument (GE Healthcare). Anti-human Fc (GE Healthcare) was immobilized onto all flow cells of a CM4 sensor chip using an amine coupling kit (GE Healthcare). All antibodies and analytes were prepared in ACES, pH 7.4 containing 20 mM ACES, 150 mM NaCl, 0.05% Tween 20, 0.005% NaN₃. Each antibody was captured onto the sensor surface by anti-human Fc. Antibody capture levels were aimed at 200 resonance units (RUs). A recombinant human HLA-DQ2.5/gliadin peptide was injected at […] prepared by four-fold serial dilution, followed by dissociation, whereas a recombinant human HLA-DQ8/gliadin peptide was injected at 50 to 200 nM prepared by four-fold serial dilution, followed by dissociation. The sensor surface was regenerated each cycle with 3M MgCl₂. Binding affinity was determined by processing and fitting the data to a 1:1 binding model using the Biacore T200 Evaluation software, version 2.0 (GE Healthcare). A commercially available antibody (SPV-L3) was tested as comparison.

[4] = target: T3, cynomolgus monkey MHC-DQ allele #1 (MHC …); test: FACS on Ba/F3-cynoDQ C1 cells, PE-labelled anti-human IgG secondary [panel Ba/F3-cynoDQ C1]
Description: as §1, §2

[5] = target: complex of the invariant chain and HLA-DQ on Raji cells (UniProt P04233 1-296); test: cell-based or functional assay
[6] = target: T2, recombinant HLA-DQ8/gliadin peptide; test: bead-based flow cytometry: HLA-DQ8/gliadin peptide on beads, antibody titrated, blocking of SP3.4 TCR-PE binding [panel DQ8/SP3.4 TCR neutralization]
Description: Streptavidin-coated yellow particles (Spherotech, SVFB-2552-6K) were incubated in blocking buffer (2% BSA in PBS) for 30 minutes with shaking at room temperature. After centrifugation and aspiration of the supernatant, 0.167 micro g/mL of soluble […] was then added as 1.2E+4 beads/micro L solution and immobilized for 60 minutes with shaking at room temperature in 96 well plates (Sigma Aldrich, Cat No. M2686). […] The final concentration of HLA-DQ8/gliadin peptide was 0.075 micro g/mL. The plates were washed with blocking buffer, and serially diluted anti-HLA-DQ2.5/8 antibodies were added and incubated for 60 minutes with shaking at room temperature. […] Data acquisition was performed on LSR Fortessa (Becton Dickinson), followed by analysis using the FlowJo software (Tree Star) and the GraphPad Prism software (GraphPad).

Chain of complex of the invariant chain and HLA-DQ on Raji cells (P04233 whole entry, change not shown, one chain of several): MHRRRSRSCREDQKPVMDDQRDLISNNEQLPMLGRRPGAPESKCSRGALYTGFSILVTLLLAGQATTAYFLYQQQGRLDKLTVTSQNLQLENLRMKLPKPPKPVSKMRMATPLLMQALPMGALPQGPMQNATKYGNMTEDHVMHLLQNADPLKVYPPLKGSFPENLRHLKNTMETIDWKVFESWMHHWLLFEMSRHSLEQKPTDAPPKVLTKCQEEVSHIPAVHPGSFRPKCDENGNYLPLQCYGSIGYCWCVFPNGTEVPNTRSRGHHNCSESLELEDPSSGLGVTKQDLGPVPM

Row | Binder | binding result [1] | binding result [2] | Kd [3] [nM] | koff [3] [s⁻¹] | kon [3] [M⁻¹ s⁻¹] | binding result [4] | ratio [MFI (PE/FITC) without Cytochalasin D, Dynasore]/[MFI (PE/FITC) with Cytochalasin D, Dynasore] on Raji cells (invariant chain-mediated internalization) [5] | IC50 (read off the curve) [6] [µg/mL]
1 | B1 | binds | binds | 7.28 | 0.00122 | 168000 | no binding |  | 
2 | B2 |  |  |  |  |  |  | ~3 | 
3 | B3 |  |  | 22.6 | 0.0033 | 146000 | no binding |  | ~0.1
4 | B4 |  |  | 11.3 |  |  |  |  | ~0.3
5 | B5 |  |  | 3.67 | 0.00137 | 374000 |  |  | 
6 | B6 |  |  | 151 |  |  |  |  | ~0.2
7 | B7 |  |  | 1.94 | 0.000458 | 236000 |  |  | ~0.1
